Test results as given in patent US20230220589A1.

Key:
[1] = target: M17-modified G NTAA target peptides; assay: encoding assay; P2 T;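 note: fraction of recording tags encoded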
[2] = target: M17-modified P NTAA target peptides; assay: encoding assay; P2 T;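 note: fraction of recording tags encoded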
[3] = target: M17-modified Y NTAA target peptides (M17-Y-P2-peptide); assay: encoding assay; P2 T;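 note: fraction of recording tags encoded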
[4] = target: M17-modified A NTAA target peptides; assay: encoding assay; P2 T;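 note: fraction of recording tags encoded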
[5] = target: M17-modified W NTAA target peptides; assay: encoding assay; P2 T;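 note: fraction of recording tags encoded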
[6] = target: M17-modified S NTAA target peptides; assay: encoding assay; P2 T;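 note: fraction of recording tags encoded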
[7] = target: M17-modified N NTAA target peptides; assay: encoding assay; P2 T;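 note: fraction of recording tags encoded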
[8] = target: M17-modified D NTAA target peptides; assay: encoding assay; P2 T;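 note: fraction of recording tags encoded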
[9] = target: M17-modified L NTAA target peptides; assay: encoding assay; P2 T;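 note: fraction of recording tags encoded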
[10] = target: M17-modified T NTAA target peptides; assay: encoding assay; P2 T;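 note: fraction of recording tags encoded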
[11] = target: M17-modified E NTAA target peptides; assay: encoding assay; P2 T;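 note: fraction of recording tags encoded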
[12] = target: M17-modified V NTAA target peptides; assay: encoding assay; P2 T;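 note: fraction of recording tags encoded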
[13] = target: M17-modified Q NTAA target peptides; assay: encoding assay; P2 T;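 note: fraction of recording tags encoded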
[14] = target: M17-modified H NTAA target peptides; assay: encoding assay; P2 T;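 note: fraction of recording tags encoded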
[15] = target: M17-modified G NTAA target peptides; assay: encoding assay; P2 M;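 note: fraction of recording tags encoded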
[16] = target: M17-modified P NTAA target peptides; assay: encoding assay; P2 M;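 note: fraction of recording tags encoded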
[17] = target: M17-modified Y NTAA target peptides (M17-Y-P2-peptide); assay: encoding assay; P2 M;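 note: fraction of recording tags encoded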
[18] = target: M17-modified A NTAA target peptides; assay: encoding assay; P2 M;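 note: fraction of recording tags encoded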
[19] = target: M17-modified W NTAA target peptides; assay: encoding assay; P2 M;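 note: fraction of recording tags encoded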
[20] = target: M17-modified F NTAA target peptides; assay: encoding assay; P2 M;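 note: fraction of recording tags encoded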
[21] = target: M17-modified M NTAA target peptides; assay: encoding assay; P2 M;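 note: fraction of recording tags encoded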
[22] = target: M17-modified S NTAA target peptides; assay: encoding assay; P2 M;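 note: fraction of recording tags encoded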
[23] = target: M17-modified N NTAA target peptides; assay: encoding assay; P2 M;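 note: fraction of recording tags encoded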
[24] = target: M17-modified D NTAA target peptides; assay: encoding assay; P2 M;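 note: fraction of recording tags encoded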
[25] = target: M17-modified L NTAA target peptides; assay: encoding assay; P2 M;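 note: fraction of recording tags encoded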
[26] = target: M17-modified I NTAA target peptides; assay: encoding assay; P2 M;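 note: fraction of recording tags encoded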
[27] = target: M17-modified T NTAA target peptides; assay: encoding assay; P2 M;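 note: fraction of recording tags encoded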
[28] = target: M17-modified E NTAA target peptides; assay: encoding assay; P2 M;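 note: fraction of recording tags encoded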
[29] = target: M17-modified V NTAA target peptides; assay: encoding assay; P2 M;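 note: fraction of recording tags encoded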
[30] = target: M17-modified Q NTAA target peptides; assay: encoding assay; P2 M;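 note: fraction of recording tags encoded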
[31] = target: M17-modified H NTAA target peptides; assay: encoding assay; P2 M;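 note: fraction of recording tags encoded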
[32] = target: M17-modified Y NTAA target peptides (M17-Y-P2-peptide); assay: encoding assay; P2 N;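 note: fraction of recording tags encoded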
[33] = target: M17-modified W NTAA target peptides; assay: encoding assay; P2 N;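 note: fraction of recording tags encoded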
[34] = target: M17-modified F NTAA target peptides; assay: encoding assay; P2 N;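 note: fraction of recording tags encoded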
[35] = target: M17-modified M NTAA target peptides; assay: encoding assay; P2 N;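 note: fraction of recording tags encoded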
[36] = target: M17-modified N NTAA target peptides; assay: encoding assay; P2 N;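 note: fraction of recording tags encoded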
[37] = target: M17-modified L NTAA target peptides; assay: encoding assay; P2 N;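 note: fraction of recording tags encoded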
[38] = target: M17-modified I NTAA target peptides; assay: encoding assay; P2 N;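 note: fraction of recording tags encoded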
[39] = target: M17-modified E NTAA target peptides; assay: encoding assay; P2 N;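 note: fraction of recording tags encoded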
[40] = target: M17-modified V NTAA target peptides; assay: encoding assay; P2 N;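 note: fraction of recording tags encoded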
[41] = target: M17-modified Q NTAA target peptides; assay: encoding assay; P2 N;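 note: fraction of recording tags encoded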
[42] = target: M17-modified H NTAA target peptides; assay: encoding assay; P2 N;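 note: fraction of recording tags encoded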
[43] = target: M44-modified H NTAA target peptides; assay: encoding assay; P2 T;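 note: fraction of recording tags encoded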
[44] = target: M44-modified D NTAA target peptides; assay: encoding assay; P2 T;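 note: fraction of recording tags encoded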
[45] = target: M44-modified W NTAA target peptides; assay: encoding assay; P2 T;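 note: fraction of recording tags encoded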
[46] = target: M44-modified H NTAA target peptides; assay: encoding assay; P2 M;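 note: fraction of recording tags encoded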
[47] = target: M44-modified G NTAA target peptides (M44-G-P2-peptide); assay: encoding assay; P2 M;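 note: fraction of recording tags encoded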
[48] = target: M44-modified D NTAA target peptides; assay: encoding assay; P2 M;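 note: fraction of recording tags encoded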
[49] = target: M44-modified S NTAA target peptides; assay: encoding assay; P2 M
[50] = target: M44-modified A NTAA target peptides (M44-A-P2-peptide); assay: encoding assay; P2 M;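 note: fraction of recording tags encoded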
[51] = target: M44-modified Q NTAA target peptides; assay: encoding assay; P2 M;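 note: fraction of recording tags encoded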
[52] = target: M44-modified W NTAA target peptides; assay: encoding assay; P2 M;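 note: fraction of recording tags encoded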
[53] = target: M44-modified A NTAA target peptides (M44-A-P2-peptide); assay: encoding assay; P2 N;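 note: fraction of recording tags encoded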
[54] = target: M44-modified P NTAA target peptides; assay: encoding assay; P2 N;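 note: fraction of recording tags encoded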

B1: engineered M17-Y binder (SEQ ID NO: 61) (designed binder, not shown: small tags and cut ends; large carriers)
chain: TVPDRSEIAGKWYVVALASNTEFYLREKDWVKSAMARISFLGEDELKVSSAVPSPNGCYKVERTWKKTSDDGEVYNSRAAKLKVEVLDTDYKSYAVIYATRVKDGRTDHQMILYSRSPEVSPAATAIFRKLAGERNYTDEMVAMLPRQEECTVDEV
Which results are given for B1?
encoding yield [1]: 0.04; encoding yield [2]: 0.01; encoding yield [3]: 0.14; encoding yield [4]: 0.03; encoding yield [5]: 0.01; encoding yield [6]: 0.01; encoding yield [7]: 0.02; encoding yield [8]: 0.01; encoding yield [9]: 0.04; encoding yield [10]: 0.02; encoding yield [11]: 0.01; encoding yield [12]: 0.03; encoding yield [13]: 0.03; encoding yield [14]: 0.01; encoding yield [15]: 0.01; encoding yield [16]: 0.02; encoding yield [17]: 0.1; encoding yield [18]: 0.01; encoding yield [19]: 0.01; encoding yield [20]: 0.03; encoding yield [21]: 0.01; encoding yield [22]: 0.01; encoding yield [23]: 0.02; encoding yield [24]: 0.02; encoding yield [25]: 0.02; encoding yield [26]: 0.06; encoding yield [27]: 0.04; encoding yield [28]: 0.02; encoding yield [29]: 0.03; encoding yield [30]: 0.01; encoding yield [31]: 0.01; encoding yield [32]: 0.06; encoding yield [33]: 0.02; encoding yield [34]: 0.02; encoding yield [35]: 0.01; encoding yield [36]: 0.03; encoding yield [37]: 0.02; encoding yield [38]: 0.02; encoding yield [39]: 0.02; encoding yield [40]: 0.02; encoding yield [41]: 0.02; encoding yield [42]: 0.03

B2: upgraded binder after additional maturation round (SEQ ID NO: 62) (designed binder, not shown: small tags and cut ends; large carriers)
chain: TVPDRSEIAGKWYVVALASNTEFYLRGKDRVKSAMVRISFQGEDELKVSSAVPSPNGCYKVERTWKKTSDDGEVYNSRAAKLKVEVLDTDYKSYAVIYATRVKDRRTDHQMILYSRSPDVSPAATAIFRKLAGERNYTDEMVAMLPRQEECTVDEV
Which results are given for B2?
encoding yield [1]: 0.05; encoding yield [2]: 0.01; encoding yield [3]: 0.24; encoding yield [4]: 0.02; encoding yield [5]: 0.02; encoding yield [6]: 0.01; encoding yield [7]: 0.02; encoding yield [8]: 0.02; encoding yield [9]: 0.08; encoding yield [10]: 0.04; encoding yield [11]: 0.02; encoding yield [12]: 0.05; encoding yield [13]: 0.02; encoding yield [14]: 0.02; encoding yield [15]: 0.02; encoding yield [16]: 0.03; encoding yield [17]: 0.23; encoding yield [18]: 0.02; encoding yield [19]: 0.03; encoding yield [20]: 0.06; encoding yield [21]: 0.02; encoding yield [22]: 0.01; encoding yield [23]: 0.02; encoding yield [24]: 0.02; encoding yield [25]: 0.04; encoding yield [26]: 0.1; encoding yield [27]: 0.05; encoding yield [28]: 0.03; encoding yield [29]: 0.03; encoding yield [30]: 0.01; encoding yield [31]: 0.01; encoding yield [32]: 0.15; encoding yield [33]: 0.02; encoding yield [34]: 0.01; encoding yield [35]: 0.02; encoding yield [36]: 0.04; encoding yield [37]: 0.03; encoding yield [38]: 0.03; encoding yield [39]: 0.03; encoding yield [40]: 0.03; encoding yield [41]: 0.02; encoding yield [42]: 0.03

B3: engineered M44-L binder (SEQ ID NO: 31) (designed binder, not shown: small tags and cut ends; large carriers)
chain: QDSTQNLIPAPPLISVPLQPGFWTERFQGRWFLVGFAGNAVQKERQSRLTMQSLILELQEDNSYNITAINVRGQGCRYIISTLVPSSRPGQFTLGNIHSYPQIQSLDVQVADTDYDQFAMVFLQGTSENKQYFEVALAGRTKGLSDELKERFVSFAKSLGLKDNNIVFSVPTDQCIDN
How did the encoding yield [43] turn out when B3 was run?
The encoding yield was 0.02.

And the encoding yield [44]?
The encoding yield was 0.01.

And the encoding yield [45]?
Its encoding yield is 0.01.

What about the encoding yield [46] of the same binder?
Its encoding yield is 0.01.

And the encoding yield [47]?
The encoding yield was 0.01.

And the encoding yield [48]?
Its encoding yield is 0.01.

And the encoding yield [49]?
Its encoding yield is 0.01.

What about the encoding yield [50] of the same binder?
The encoding yield was 0.02.

What about the encoding yield [51] of the same binder?
Its encoding yield is 0.01.

What about the encoding yield [52] of the same binder?
Its encoding yield is 0.03.

And the encoding yield [53]?
Its encoding yield is 0.02.

And the encoding yield [54]?
The encoding yield was 0.01.

B4: engineered M44-A binder (SEQ ID NO: 42) (designed binder, not shown: small tags and cut ends; large carriers)
chain: QVSVQPNFQQDKFLGRWFVAGLASNSSWDREKVAALSGAKMVVAPATDGGLNVTRTMLRKNQCETYTGLLQPAGSLGSYSWRSPHPGSTGSESVVETDYDQYALVYGQGSKGPGEDLRAAALWSRTQTPRAELKEKFTAFSKAQGFTEDTIVFLPQTDKCMTEQ
For B4, which encoding yield [43] is on record?
Its encoding yield is 0.01.

And the encoding yield [44]?
The encoding yield was 0.02.

What about the encoding yield [45] of the same binder?
The encoding yield was 0.01.

And the encoding yield [46]?
Its encoding yield is 0.01.

And the encoding yield [47]?
The encoding yield was 0.04.

What about the encoding yield [48] of the same binder?
Its encoding yield is 0.02.

And the encoding yield [49]?
The encoding yield was 0.04.

And the encoding yield [50]?
Its encoding yield is 0.1.

And the encoding yield [51]?
The encoding yield was 0.01.

What about the encoding yield [52] of the same binder?
Its encoding yield is 0.01.

And the encoding yield [53]?
Its encoding yield is 0.1.

What about the encoding yield [54] of the same binder?
The encoding yield was 0.02.
